Source: paper PMC9080894

Columns and labels:
thrombin, BODIPY-labeled [1] = target: T1, thrombin, BODIPY-labeled (human, UniProt P00734;P00734 328-363;364-622); assay: single-particle fluorescence microscopy of aptamer-coated microspheres
thrombin, BODIPY-labeled [2] = target: T1, thrombin, BODIPY-labeled; assay: single-particle fluorescence microscopy of coated microspheres

| Binder | binding result (thrombin, BODIPY-labeled [1]) | binding result (thrombin, BODIPY-labeled [2]) |
| --- | --- | --- |
| TTCACTGTGGTTGGTGTGGTTGG (structured_DNA, 5'-NH2) [ssTBA] | binds |  |
| CCAACCACAGTGTT (ssDNA, 3'-NH2) [NH2-com] |  | no binding |
